Assay results from the DeepSol protein solubility set.

Assay: soluble on expression in E. coli; label from the status in PepcDB or PDB records

Question: For “MAVKEATSETKKRSGYEIITLTSWLLQQEQKGIIDAELTIVLSSISMACKQIASLVQRANISNLTGTQGAVNIQGEDQKKLDVISNEVFSNCLRSSGRTGIIASEEEDVPVAVEESYSGNYIVVFDPLDGSSNLDAAVSTGSIFGIYSPNDECLPDFGDDSDDNTLGTEEQRCIVNVCQPGSNLLAAGYCMYSSSVIFVLTIGKGVFVFTLDPLYGEFVLTQENLQIPKSGKIYSFNEGNYKLWDENLKKYIDDLKEPGPSGKPYSARYIGSLVGDFHRTLLYGGIYGYPRDKKSKNGKLRLLYECAPMSFIVEQAGGKGSDGHQRVLDIQPTEIHQRVPLYIGSTEEVEKVEKYLA”, which “soluble on expression in E. coli” value is on record?
Answer: soluble

Question: For “MAVKHKSESLKHEEGAAKKAKTGLLKLKKIMDIESNVVKYSICIPTTVIDNCNNLEQVTFTAYQIARTAVLFNVQEIIVLDQSKDKKHEKKSRSKETISDCLLLATLLQYFVTPPNLLDTTFKKKNKLYLKCASTFPPLNQLPFMNASAEQHYKEGLSIARDSSKGKSDDALTNLVYIGKNQIITLSNQNIPNTARVTVDTERKEVVSPIDAYKGKPLGYHVRMASTLNEVSEGYTKIVWVNSGDFHYDEELSKYHKVETKLPYIAKLKKSSTSEKPCNILLIFGKWGHLKRCFRRSDLESSSLHHYFSGQLQFPASVPQGNIPIQDSLPIALTMFQRWAS”, which “soluble on expression in E. coli” value is on record?
Answer: soluble

Question: Which “soluble on expression in E. coli” value does the source give for “MAVMIVGGGMAGATLALAISRLSQGTIPVDLIEAYSPLDKEHPGFDARALALSDGTRQQLAALGIWQAMSGNATAITDIHVSERGHASVVNLHAADYHVQALGHVVELHDVGQRLFSLLQQAPGVRLHCPAKVVAVTRTQENATLTLDNGTALTGQLLVAADGSHSMLSQSCGIHWQQHEYDQVAVIANVTTGEPHRGRAFERFTPHGPLALLPMSNGRSSLVWCHDKHRQHDVDGWSETEFRQQLQLAFGWRLGQFTHIGERHSYPLRLLTASQHTSHRLALVGNAAQTLHPIAGQGFNLGIRDVMSLAETLVEAVKNQQDIGQYSVLSRYQQRREPDQHTTVAITDGLVRLFANRYTALAVGRNLGLIAMNNLPLMRDAFARRTLGWVERLEHHHHHH” here?
Answer: not soluble

Question: For “MAVPPAYADLGKSAKDIFNKGYGFGMVKLDVKTKSASGVEFKTSGSSNTDTSKVVGSLETKYKRSEYGLTFTEKWNTDNTLGTEINIEDQIAKGLKLTFDTTFSPNTGKKSGKVKTAYKREFVNLGCDVDFDFAGPTIHGAAVVGYEGWLAGYQMSFDTAKSKMTQNNFAVGYKTGDFQLHTNVNDGSEFGGSIYQKVSDKLETAVNLAWTAGSNSTRFGIAAKYQLDKDASISAKVNNTSLVGVGYTQSLRPGIKLTLSALVDGKSINSGGHKLGLGLELEA”, which “soluble on expression in E. coli” value is on record?
Answer: not soluble

Question: For “MAVQYKSTTTEHKFKHLSVYERGQIAALLKEGKSQRYIANKLGRSPSTISREIKRGTTMQMRTDLSTYKVYFPETGQAVYEKNRMNCGAKRKLAQVEDFLKFAEDKILREKWSPDAVVGLCRRDPKWQNSTIVCTKTLYNYIDLGLIKVRNIDLNLKLRLKS”, which “soluble on expression in E. coli” value is on record?
Answer: soluble

Question: For “MAVSDSQNSQTCLDPDASRSVLGIILGGGAGTRLYPLTKKRAKPAVPLGANYRLIDIPVSNCLNSNISKIYVLTQFNSASLNRHLSRAYASNMGGYKNEGFVEVLAAQQSPENPDWFQGTADAVRQYLWLFEEHTVLEYLILAGDHLYRMDYEKFIQAHRETDADITVAALPMDEKRATAFGLMKIDEEGRIIEFAEKPQGEQLQAMKVDTTILGLDDKRAKEMPFIASMGIYVISKDVMLNLLRDKFPGANDFGSEVIPGATSLGMRVQAYLYDGYWEDIGTIEAFYNANLGITKKPVPDFSFYDRSAPIYTQPRYLPPSKMLDADVTDSVIGEGCVIKNCKIHHSVVGLRSCISEGAIIEDSLLMGADYYETDADRKLLAAKGSVPIGIGKNCHIKRAIIDKNARIGDNVKIINKDNVQEAARETDGYFIKSGIVTVIKDALIPSGIII”, which “soluble on expression in E. coli” value is on record?
Answer: soluble

Question: With “MAVTKELLQMDLYALLGIEEKAADKEVKKAYRQKALSCHPDKNPDNPRAAELFHQLSQALEVLTDAAARAAYDKVRKAKKQAAERTQKLDEKRKKVKLDLEARERQAQAQESEEEEESRSTRTLEQEIERLREEGSRQLEEQQRLIREQIRQERDQRLRGKAENTEGQGTPKLKLKWKCKKEDESKGGYSKDVLLRLLQKYGEVLNLVLSSKKPGTAVVEFATVKAAELAVQNEVGLVDNPLKISWLEGQPQDAVGRSHSGLSKGSVLSERDYESLVMMRMRQAAERQQLIARMQQEDQEGPPT” as the sequence, how does the “soluble on expression in E. coli” value read?
Answer: soluble

Question: Which “soluble on expression in E. coli” value does the source give for “MAVTTTSESAAEFKEKNVSPVKVEFINAPEKDPGLNVEWQIQGTGYNNEGSGSVIYVRMKNLNDVAIPADAFDDPVLTINGTEASRVEAGTVDLDLPLGPGATTNLQFAFGTGYGSLSDAKLVLGNCIFEGNLSNI” here?
Answer: not soluble

Question: Which “soluble on expression in E. coli” value does the source give for “MAVVPIRIVGDPVLHTATTPVTVAADGSLPADLAQLIATMYDTMDAANGVGLAANQIGCSLRLFVYDCAADRAMTARRRGVVINPVLETSEIPETMPDPDTDDEGCLSVPGESFPTGRAKWARVTGLDADGSPVSIEGTGLFARMLQHETGHLDGFLYLDRLIGRYARNAKRAVKSHGWGVPGLSWLPGEDPDPFGH” here?
Answer: soluble

Question: Which “soluble on expression in E. coli” value does the source give for “MAWGGLCNPPLCFGFSGCDMNVREYYEHALAERGYQPDEAQLQAVERLQRYYDEWVRFKALRSNALKKLLNRPDVPRGVYLWGGVGRGKSFLMDAFYATVPVVRKTRLHFHEFMRGVHRELEEVKGTQDPLDEVARRLARRYRLICFDEFHVSDVADAMILYRLLLKLFEHGTSFVMTSNYEPSTLYPDGLHRDRILPAIALIQGRMDVLNVDAGIDYRRRSLEQVQCYHTPLDAQARQALEHAFAQLSDTAPQDPVLHIEHREIRAQALAGSVVWFDFATLCGGPRSQNDYLELANRFHAVILSDVPRMGPRQASEARRFTWLIDVFYDHKVKLIMSAEVEPEQLYTEGALANEFHRTVSRILEMQSREYLEAERRLAVTLAAALEHHHHHH” here?
Answer: not soluble

Question: Which “soluble on expression in E. coli” value does the source give for “MAWLNPFWSSPKAYVRPPKRGLAPELWASRIPFTHLENFYEVFRALWENRDNLPYAWRILKDGVCDGCALGTSGLEDWTLHGVHLCNVRLRLLSLNTLPPLDPKVLKDVEALKGRKSRELRRLGRLPYPMLRRKGERGFRRVSWDEAMGLATEYLRRHLPEGAFFYLTSRGVPNETYYVVQKAVRALGCNHVDNAARICHSPSTVVLKEALGVAATTCSYTDLIGTDLVVFLGSNVANNQPVMMKYLYHAKKAGTKVAVVNPYREPGMERYFVPSDLESALFGTRIADRFFQILPGGDIAFLHGAAKWMLEEGWVDPGFIRAHTAGFEAYKALLEAIPFAELEKAAGVSREEMRAFAEMVGRAERAVFVWGMGITQHTHGEDNVRAIVNLALLKGFVGREGCGLMPIRGHSGVQGGAEMGAYATAFPGGLPVNPENARRLAELWGFPVPDRPGLTTPEALDRALEGRLGVLWAIGGDFREVMPDPEAVEEALRRVPLRVHQDIVLSSQMLLEPGECVLLLPATTRYEVPGGVTETSTERRVIFSPEIPGPRPPEARPEWEVFQELVHRLRPELKDRFRFASTAEIREEIARVIPLYEGIQRFKAKGDQFQYGGRRLCEGWRFPTPDGKAHFRPVPLPQKEVPEGAFRVVTRRGKQFNSIVHEDQDPLTGAFRDAVYMNPKDAARLGLKPGDPVVLENAFGRYAGRVYLAEVKEGTLEVHWPEGNVLVDPKARSPLAHIPAYKEILAHLRRGEAEAPSPLRP” here?
Answer: soluble

Question: For “MAYEEHFQQTSEAKYDCLLFDIDDTLYPLSSGLAMEVKKNIQEYMVQKLGIEEDKVQELCLSLYKIYGTTMAGLKAVGYDFDYDDFHRFVHGRLPYSTLKPDPILRNIILSLPIRKVVFTNADKAHAAKIIARLGLEGCFEKIISFETLNPITKTESPVDTKTREIFDIISYMANPDSSIELPKTSVVCKPSEGAFEQVFKMANINPKKTLFFDDSIRNIQTGKRVGLHTVWVGTSHREEGVDIALEHIHNIREALPQLWDAVDDKAKEIRTRQKVAIETIA”, which “soluble on expression in E. coli” value is on record?
Answer: not soluble

Question: With “MAYETFAFVYDEVMDESLYQKWLDFSNRHLPQGTQQILEMACGTGALAVDFAKSGYDVTALDLSEEMLMIASERAFEEEVPVQFVQGNMLDLSEVGQYQAITCFSDSLCYMANRQEVQQVFDEVYQALEEEGTFIFDVHSTYKIDSVFPEYSYHYQTEEFAFLWDSYAGEKEHSIEHFLTFFVKEQETDEHFVRYDELHQERTYSLDNYLRMLESAGFMNVKVYADFTDEAPTETSERWFFVCQRD” as the sequence, how does the “soluble on expression in E. coli” value read?
Answer: not soluble

Question: Which “soluble on expression in E. coli” value does the source give for “MCFINLRSVADTINTQTRRITMFTYYQAENSTAEPALVNAIEQGLRAQHGVVTEDDILMELTKWVEASDNDILSDIYQQTINYVVSGQHPTLLEHHHHHH” here?
Answer: not soluble

Question: For “MCGIVGYIGNNEKKQIILNGLKELEYRGYDSAGMAVMQEGELSFFKAVGKLENLANKCTDFESQGYGFAIGHTRWATHGKPTEINAHPHLGQYSCVIHNGIIENYKEIKDKLEKEGVSFLSQTDTEVIVQLFEFYARNLGVFEAWQKTIKELRGAFATLLVTKKDPNHVYFAKNAAPLIIGKNANKEWYFSSGDAPLIGSCDEVMYLEDLSLGYASKDELVVYENDILKSLCFSKLSGDKAYAKKDGFRFFMEKEIYEQSRVMSEVLMGRIQGDEVVFDELNNEDLSQVDEITLCACGTSYHAAMASAYLFERIAKVKAKVEIASEFRYREAIIKKDSLFIVISQSGETADTLEALKIAKEQGAKTFAICNVDNSNIVRLAHLSLLTRAGIEKGVASTKAFATQVLTLWMLAIFMAQKRNLNVSAEIKALLHTPNCVSVKQALHEKIHRLSKRYLDGHGFFFIGRDVFYPLALEGALKLKELSYLHAEGYPAGEMKHGPIALADSKLYTIALMPKHMLYEKTKSNVEELIARDSTVLSISPLEFDLSDDFIKTNEQDHYMCEFFEMMVITQLLAMEISIRLGNDVDMPRNLAKSVTVE”, which “soluble on expression in E. coli” value is on record?
Answer: not soluble

Question: Which “soluble on expression in E. coli” value does the source give for “MCHEEVFSCCRTRTFHFLRSYGHDGWRNDGRNDERKADVSAHVLLPLHDAYDADDVHDADDGYALHGYEPHDGNDEHADDGSGNHEDCNRTQAKVYEGTYGKTPEENEKVIFSSFFPLFLEE” here?
Answer: not soluble

Question: With “MCIAIPGKMTAIVDENTATIDMGGICRDVNMALMGGAEESMIGKHFLVHVGYAISEISEEESEETMRLLKIMAGLEEIDSFE” as the sequence, how does the “soluble on expression in E. coli” value read?
Answer: soluble

Question: For “MCLAIPSKVIAIKDNVVLLETLGVQREASLDLMGESVKVGDYVLLHIGYVMSKIDEKEALESIELYQEMIARMNETQ”, which “soluble on expression in E. coli” value is on record?
Answer: not soluble

Question: With “MCLDQVMEGSATVHMAAPPDKIWTLIADVRNTGRFSPETFEAEWLDGATGPALGARFRGHVRRNGIGPVYWTVCEPGREFGFAVLLGDRPVNNWHYRLTPTADGTEVTESFRLPPSVLTTVYYRVFGGWLRQRRNIRDMTKTLQRIKDLVEAG” as the sequence, how does the “soluble on expression in E. coli” value read?
Answer: soluble

Question: For “MCLGVPAQIAEIHDSTRATVSMSGVSRMVSTDLLAETIDVGDWVLIHVGFALSKIDEDEAAVTLQQIKQLGGFDEELQSFESSEI”, which “soluble on expression in E. coli” value is on record?
Answer: not soluble

Question: With “MCLIVFAWQPGHALPLLVAANRDEFYARPSLPLAAWEDAEGVFAGRDLEAGGTWLGLGPAGRFAALTNVRDPSQALGKRSRGELVADFLRGGGNPADYLAQVAGRAADYSGFNLLIGDRHQLWHYNPRVGPPRLLPAGIYGLSNAALDTPWPKLLKARAALAERLAEPHPQALLELLADAAPAADGQLPDTGVGLATERLLSSVFIASPSYGTRASSVVRVHADGTREMIERSFGPSGARLGEVSLVLPPGLEHHHHHH” as the sequence, how does the “soluble on expression in E. coli” value read?
Answer: not soluble

Question: For “MCLVDFGLRFNHKGRHYFKAANGEDIALSLSIGAAMFNGHPDYERLIQIADEALYIAKRRGRNRVELCKASL”, which “soluble on expression in E. coli” value is on record?
Answer: not soluble

Question: With “MCMSSQSYFKSVMYALVTGGTRGIGRAITEALLKEGYNVAVLYHGSEDKAKELREKGVLTVRCDVGDRNQVKKAKEEISNHFPRLDVLVNNAGIWYLMPFEQFDEEKYERMLRVNLNGTIYVTYEFLSLLKKSSAASIINIASNAGIGTAAEGTTFYAITKAGIIILTRRLAFELGKYGIRVNAVAPGWIETDMTLGNKSDEEKEKLREIFRNKTVLHTTGKPEDIANIVVFLASEKARYITGQVIVADGGRIDNLTHSV” as the sequence, how does the “soluble on expression in E. coli” value read?
Answer: soluble
